# According to paper doi:10.1101/2021.04.21.440798 (bioRxiv, 2021):
# B1: Calnexin (CANX), endogenous (natural protein)
# chain: HDGHDDDVIDIEDDLDDVIEEVEDSKPDTTAPPSSPKVTYKAPVPTGEVYFADSFDRGTLSGWILSKAKKDDTDDEIAKYDGKWEVEEMKESKLPGDKGLVLMSRAKHHAISAKLNKPFLFDTKPLIVQYEVNFQNGIECGGAYVKLLSKTPELNLDQFHDKTPYTIMFGPDKCGEDYKLHFIFRHKNPKTGIYEEKHAKRPDADLKTYFTDKKTHLYTLILNPDNSFEILVDQSVVNSGNLLNDMTPPVNPSREIEDPEDRKPEDWDERPKIPDPEAVKPDDWDEDAPAKIPDEEATKPEGWLDDEPEYVPDPDAEKPEDWDEDMDGEWEAPQIANPRCESAPGCGVWQRPVIDNPNYKGKWKPPMIDNPSYQGIWKPRKIPNPDFFEDLEPFRMTPFSAIGLELWSMTSDIFFDNFIICADRRIVDDWANDGWGLKKAADGAAEPGVVGQMIEAAEERPWLWVVYILTVALPVFLVILFCCSGKKQTSGMEYKKTDAPQPDVKEEEEEKEEEKDKGDEEEEGEEKLEEKQKSDAEEDGGTVSQEEEDRKPKAEEDEILNRSPRNRKPRRE
# Biological target: GFP-T6BP (TAX1BP1 / TRAF6-Binding Protein fused to GFP) (UniProt Q86VP1 1-789)
# Experiment: co-IP
# Chain of GFP-T6BP (TAX1BP1 / TRAF6-Binding Protein fused to GFP) (Q86VP1 whole entry, the tested form may be a part): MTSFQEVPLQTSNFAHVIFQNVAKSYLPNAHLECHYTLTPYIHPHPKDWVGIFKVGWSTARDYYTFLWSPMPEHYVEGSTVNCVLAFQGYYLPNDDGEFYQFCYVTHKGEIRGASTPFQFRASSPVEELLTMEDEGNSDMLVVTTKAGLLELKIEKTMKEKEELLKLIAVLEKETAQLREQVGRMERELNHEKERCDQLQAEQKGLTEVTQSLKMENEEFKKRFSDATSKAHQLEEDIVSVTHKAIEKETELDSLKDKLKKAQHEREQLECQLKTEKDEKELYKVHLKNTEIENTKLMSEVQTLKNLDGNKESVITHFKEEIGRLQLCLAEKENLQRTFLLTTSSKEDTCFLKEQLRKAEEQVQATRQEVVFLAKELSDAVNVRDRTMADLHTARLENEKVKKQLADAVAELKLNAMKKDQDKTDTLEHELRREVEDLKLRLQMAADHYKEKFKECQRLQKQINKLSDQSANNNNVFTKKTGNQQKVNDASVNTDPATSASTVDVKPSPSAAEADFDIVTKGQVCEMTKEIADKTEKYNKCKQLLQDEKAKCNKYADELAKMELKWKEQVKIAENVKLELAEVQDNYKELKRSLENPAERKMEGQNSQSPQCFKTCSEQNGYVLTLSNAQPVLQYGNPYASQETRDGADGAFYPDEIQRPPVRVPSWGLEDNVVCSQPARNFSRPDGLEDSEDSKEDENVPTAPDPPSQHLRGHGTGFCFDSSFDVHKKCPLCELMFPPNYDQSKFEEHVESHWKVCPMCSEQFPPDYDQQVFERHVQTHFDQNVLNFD
binder,measurement,value
B1,fold enrichment over the GFP control,3 fold
